Earlier results in publication PMC3694163.

Key:
IR (Homo sapiens) = IR (Homo sapiens) (UniProt P06213)
IGFBP6 (Homo sapiens) = IGFBP6 (Homo sapiens) (UniProt P24592)
IGFBP6 (Homo sapiens), sequence (P24592 28-240): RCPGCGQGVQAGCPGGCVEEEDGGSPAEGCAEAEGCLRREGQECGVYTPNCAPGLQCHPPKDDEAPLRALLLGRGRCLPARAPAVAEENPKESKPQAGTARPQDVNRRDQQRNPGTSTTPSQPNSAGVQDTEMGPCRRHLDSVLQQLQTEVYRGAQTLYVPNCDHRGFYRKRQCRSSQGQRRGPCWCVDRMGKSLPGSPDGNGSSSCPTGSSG

insulin, sequence (P01308 90-110): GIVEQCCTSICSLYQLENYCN

In the case of insulin (from UniProt P01308), the Kd (IR (Homo sapiens)) is listed as 0.1 nM.
For IGF-II (from UniProt P01344), the Kd (IGFBP6 (Homo sapiens)) is given as 5.7 nM.
